The target in experiment [1] is T1, STAT3 (mouse, endogenous) (mouse, UniProt P42227 2-770).
T1 construct: Endogenous intracellular protein
The experiment can be described thus: co-immunoprecipitation with anti-Fas antibody and Protein G beads from EL4 mouse T cell line, Western blot. As for the experimental part:
(§1) For DISC assembly, 1*10⁸ EL4 cells or 5-7*10⁷ MACS sorted primary mouse CD4 cells were stimulated for 15 minutes with either biotinylated anti-Fas antibody (Jo2, 2.5 μg/ml) and streptavidin ([…], Thermo Scientific) or with multimerized recombinant human Fas ligand (aa 139-281) fused at the N-terminus to mouse ACRP30headless (aa 18-111) and a FLAG-tag (MegaFasL, Adipogen) at a final concentration of 100 ng/ml as indicated in the figure legends. MegaFasL was dissolved in H₂O that was used as vehicle. For immunoprecipitation (IP) experiments, cells were then washed twice with ice-cold PBS, lysed in ice-cold IP buffer containing 30 mM Tris HCL, 1% Triton-X100, 150 mM NaCl, 2 mM EDTA, 10% glycerol, 1 mM PMSF, phosphatase inhibitors (HALT, Thermo Scientific) and protease inhibitors (Roche). Immuoprecipitation was performed immediately after lysis using protein G magnetic Dynabeads (Life Technologies) with three consecutive washes with IP buffer. For phosphorylation studies, sorted naïve T cells were stimulated with the cytokines as indicated, then washed with PBS, and either lysed in IP buffer or cytoplasmic and nuclear fractions were extracted using NE-PER reagents (Thermo Scientific) following the manufacturer's protocol. […]
On the technique in general: A western blot detects proteins with antibodies after separation by electrophoresis.

For experiment [2], the target named is T2, STAT4 (mouse, endogenous) (mouse, UniProt P42228 1-749).
T2 construct: Endogenous intracellular protein
T2 sequence (looked up): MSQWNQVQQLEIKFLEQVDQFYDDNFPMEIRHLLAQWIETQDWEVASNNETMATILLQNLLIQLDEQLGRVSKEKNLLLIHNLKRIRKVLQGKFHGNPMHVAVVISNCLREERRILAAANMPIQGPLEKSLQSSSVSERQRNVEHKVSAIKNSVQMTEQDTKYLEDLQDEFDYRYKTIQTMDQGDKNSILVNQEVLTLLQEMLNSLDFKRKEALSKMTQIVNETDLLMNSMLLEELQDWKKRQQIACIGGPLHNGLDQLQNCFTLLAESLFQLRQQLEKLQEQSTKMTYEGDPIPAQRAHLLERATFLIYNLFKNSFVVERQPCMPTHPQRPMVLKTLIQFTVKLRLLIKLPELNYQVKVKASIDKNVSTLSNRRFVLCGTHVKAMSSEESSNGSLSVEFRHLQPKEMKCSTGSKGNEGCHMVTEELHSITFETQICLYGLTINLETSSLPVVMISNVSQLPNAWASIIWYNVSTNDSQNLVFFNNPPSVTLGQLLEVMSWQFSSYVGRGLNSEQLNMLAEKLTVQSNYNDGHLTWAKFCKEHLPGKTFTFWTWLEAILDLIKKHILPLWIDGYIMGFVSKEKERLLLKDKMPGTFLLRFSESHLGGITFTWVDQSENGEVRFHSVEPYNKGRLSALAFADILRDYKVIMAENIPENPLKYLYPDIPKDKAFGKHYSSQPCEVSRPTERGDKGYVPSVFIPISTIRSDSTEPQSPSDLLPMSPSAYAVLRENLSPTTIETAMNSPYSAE
The description is as above. As to the method: as §1

T1 sequence (P42227 2-770 limits assumed): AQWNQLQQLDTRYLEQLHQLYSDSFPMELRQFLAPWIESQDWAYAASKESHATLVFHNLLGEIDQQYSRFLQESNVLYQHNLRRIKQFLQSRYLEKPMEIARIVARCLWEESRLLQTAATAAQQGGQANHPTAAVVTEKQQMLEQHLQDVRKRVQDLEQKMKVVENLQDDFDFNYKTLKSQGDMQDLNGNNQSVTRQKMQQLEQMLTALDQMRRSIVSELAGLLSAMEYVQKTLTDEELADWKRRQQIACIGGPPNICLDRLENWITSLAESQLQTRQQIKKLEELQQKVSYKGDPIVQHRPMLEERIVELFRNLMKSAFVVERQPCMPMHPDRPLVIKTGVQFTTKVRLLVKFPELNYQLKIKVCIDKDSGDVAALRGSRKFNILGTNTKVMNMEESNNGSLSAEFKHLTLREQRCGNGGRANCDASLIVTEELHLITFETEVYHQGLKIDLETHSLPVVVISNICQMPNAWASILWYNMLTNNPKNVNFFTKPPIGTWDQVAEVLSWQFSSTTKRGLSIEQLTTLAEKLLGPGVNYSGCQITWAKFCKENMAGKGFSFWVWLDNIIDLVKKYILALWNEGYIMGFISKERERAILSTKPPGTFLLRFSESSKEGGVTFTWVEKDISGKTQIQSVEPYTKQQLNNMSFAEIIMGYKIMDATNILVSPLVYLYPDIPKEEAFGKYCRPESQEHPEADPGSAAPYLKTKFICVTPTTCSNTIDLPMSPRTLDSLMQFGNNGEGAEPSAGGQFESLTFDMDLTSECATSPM

B1: Fas (mouse death receptor Fas, endogenous in EL4 cells and primary mouse CD4+ T cells) (receptor, UniProt P25446 22-327, looked up)
chain: QGTNSISESLKLRRRVRETDKNCSEGLYQGGPFCCQPCQPGKKKVEDCKMNGGTPTCAPCTEGKEYMDKNHYADKCRRCTLCDEEHGLEVETNCTLTQNTKCKCKPDFYCDSPGCEHCVRCASCEHGTLEPCTATSNTNCRKQSPRNRLWLLTILVLLIPLVFIYRKYRKRKCWKRRQDDPESRTSSRETIPMNASNLSLSKYIPRIAEDMTIQEAKKFARENNIKEGKIDEIMHDSIQDTAEQKVQLLLCWYQSHGKSDAYQDLIKGLKKAECRRTLDKFQDMVQKDLGKSTPDTGNENEGQCLE
notes: whole, on cells; Endogenous protein; also called Fas receptor; CD95
Turning to B1, the binding result in experiment [1] and in experiment [2] was “no binding” throughout.

For the origin of these results see patent publication US20190345446A1 (BROAD INSTITUTE, published 2019).
